Columns and labels:
[1] = biological target: T1, DegU (Bacillus velezensis DMW1) (UniProt A3KLC2); assay: EMSA; details: MST: 50 mM Tris pH 7.5, 150 mM NaCl, 10 mM MgCl2, 0.05% Tween 20, 25 C
T1 sequence: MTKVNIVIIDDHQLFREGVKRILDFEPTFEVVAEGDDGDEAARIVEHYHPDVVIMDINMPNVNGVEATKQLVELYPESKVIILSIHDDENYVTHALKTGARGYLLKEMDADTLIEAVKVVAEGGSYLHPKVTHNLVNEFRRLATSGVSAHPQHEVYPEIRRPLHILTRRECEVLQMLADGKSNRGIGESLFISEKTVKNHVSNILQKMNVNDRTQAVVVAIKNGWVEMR

[2] = tested on: DegU (Bacillus velezensis DMW1); assay: MST; details: MST: 50 mM Tris pH 7.5, 150 mM NaCl, 10 mM MgCl2, 0.05% Tween 20, 25 C

## AGTGCTCTATGTAAAATAGAGTGCTTTTTTTGCGGTTTAATGAAATCATATTGCGAACATTCGGACCGTCTGTTTCGGTTCTTGCGCTGTTTTTTCCGGGTCAGCTTACGTACGTAAATTTTTTTCATTCTGCCATAACTGGATATTTGACAGATTTTCATTATAGTTTAAAGATTTTTAATTTTACGTAAATAATATTTTTGAAAATAAATTGCGGGATGCCGCAAAATACCCTCTGGATTCGTCGGATTTTTTTTCGGTGTGCCGCATGAAACTTTTCACCCATTTTTCG (double strand) [P01 (srfA promoter -328 to -36)]
[1]
  binding: no binding

## ATGTGTGCGCCTCCCCTTTTTAAGATAAAGTTGTCAATTCTCCCTTAGAAACAGCCTCCCTCTATGTCCCTAACTCATTCTCAAGCCAAAAGAACCACTTACCTCCAAAAACGATCCCGATTCAATCACCGCCGAAATCCGTCATCCGTTCACCCGCGCAGTCCGAAATGCGGCATCAAATTTATGAGAAATCAAGACAAAAAGCCATTGATTGTAAGCACGAAAGGTTTACCTATTTCTGCATGTATTTCTATATATCTACTTACGTTCACTTTATATGAAAATATTGTTTTTATCAC (double strand) [P02 (srfA promoter -35 to +263)]
[1]
  binding: binds

## pbae
[2]
  Kd: 0.11 µM

## pdfn
[2]
  Kd: 0.14 µM

## pfen
[2]
  Kd: 1.17 µM

## pitu
[2]
  Kd: 0.03 µM

## pmln
[2]
  Kd: 0.13 µM

## psrfA
[2]
  Kd: 0.67 µM
